# Assay results published in the nanobody polyreactivity screen of Harvey et al. (2022).
# Assay: yeast display, Sf9 membrane polyspecificity reagent, FACS + sequencing; frameworks hold sequencing errors
# In short: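 Sorting gates, low and high (top ~1%), were placed on anti-HA fluorescence to track expression and on streptavidin fluorescence to track reagent binding. A clone's polyreactivity label is taken from the gate it came out of. The reagent was 10% biotinylated, detergent-solubilized Sf9 membrane, applied for 1 hour at 4 °C to galactose-induced yeast display cells.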
row,Sequence,polyreactivity (PSR sort gate)
1,QVQLVESGGGLVQAGGSLRLSCAASGRTLWIYAMGWYRQAPGKERELVASITTRGGSTYYADSVKGRFTISRDNAKNTVYLQMNSLKPEDTAVYYCAAEGYTYYTYYPHDYWGQGTQVTVSS,high polyreactivity
2,QVQLVESGGGLVQAGGSLRLSCAASGRTLWSYAMGWYRQAPGKEREIVAAISRRGGITYYADSVKGRFTISRDYAKNTVFLQRISLKPVDTAVFYSAKGAQSYYGGQVKYDYWGQGTQVTVSS,high polyreactivity
3,QVQLVESGGGLVQAGGSLRLSCAASGRTLWTNAMGWYRQAPGKEREFVAPITWRGGSTYYADSVKGRFTISRDNAKNTVNLQMNSLKPEDTAVYYCATLIPRKGSRYYHRGYWGQGSQVTVSS,high polyreactivity
4,QVQLVESGGGLVQAGGSLRLSCAASGRTLYIYAMGWYRQAPGKERELVAAITRRGDSTYYADSVKGRFTISRDNAKNTVYLQMNSLKPVDTAVYYCAADFPDTSSQYDPAYEYWGQGTQVTVSS,low polyreactivity
5,QVQLVESGGGLVQAGGSLRLSCAASGRTLYLYAMGWYRQEPGKERELVAGITWSGGSTYYADSVKGRFTISRDNAKNTVYLQMNSLKPEDTAVYYCAAVSYPDYDYWGQGTQVTVSS,low polyreactivity
6,QVQLVESGGGLVQAGGSLRLSCAASGRTLYWYAMGWYRQAPGKERELVAAISSGGGSTYYADSVKGRFTISRDNAKNTVYLQMNSLKPEDTAVYYCATDEPWVYGYDYWGQGTQVTVSS,low polyreactivity
7,QVQLVESGGGLVQAGGSLRLSCAASGRTMGQNVMGLYRQAPGKERELVAAISSNTAGNTYYADSVKGRFTISRDNAKNTVYLQMNSLKPEDTAVYYCAKVDSFEAKLDYWGQGTQVTVSS,low polyreactivity
8,QVQLVESGGGLVQAGGSLRLSCAASGRTMYRNAMGWYRQAPGKERELVDDISRSGGSTFYADSVKGRFTISRDNAKNTVYLQMNSLKPEDTAVYYCNADYQEYVSGYDYWGQGTQVTVSS,high polyreactivity
9,QVQLVESGGGLVQAGGSLRLSCAASGRTSAKYAMGWYRQAPGKERELVAVITKNSGSTYYADSVKGRFTISRDNAKNTVYLQMNSLKPEDTAVYYCNRVPRGINRQSRPEDYWGQGTQVTVSS,high polyreactivity
10,QVQLVESGGGLVQAGGSLRLSCAASGRTSARYGMGWYRQAPGKERELVASIRRSGDSTYYADSVKGRFTISRDNAKNTVYLQMNSLKPEDTAVYYCAAGGKQGKRDYWGQGTQVTVSS,low polyreactivity
11,QVQLVESGGGLVQAGGSLRLSCAASGRTSEFNAMGWYRQAPGKERELVAAITDGGNTNYADSVKGRFTISRDNAKNTVYLQMNSLKPEDTAVYYCAAERYTWWGFDYDYWGQGTQVTVSS,high polyreactivity
12,QVQLVESGGGLVQAGGSLRLSCAASGRTSFWNAMGWYRQAPGKERELVSAISASVGRTYYADSVKGRFTISRDNAKNTVYLQMNSLKPEDTAVYYSAKVYHAGTGYPSLGLDYWGQGTQVTVSS,low polyreactivity
13,QVQLVESGGGLVQAGGSLRLSCAASGRTSGYYAMGWYRQAPGKERELVAAISGGDSTNYADSVKGRFTFSRDNAKNTVYLQMNSLKPEDTAVYYCAKRTRVSWVPTFDYWGQGTQGTVSS,low polyreactivity
14,QVQLVESGGGLVQAGGSLRLSCAASGRTSHRNVMGWYRQAPGTEREVVARISRSGGRTYYADSVKGRFTISRDNAKNTVYSQMNSLKPEDTAVYYCNADYSSRGANYDYWGQGTQVTVSS,high polyreactivity
15,QVQLVESGGGLVQAGGSLRLSCAASGRTSNVYAMGWYRQAPGKERELVAAISSRDGTTYYADSVKGRFTISRDNAKNTVYLQMNSLKPEDTAVYYCAAAVLSYADYYYDYEYWGQGTQVTVSS,high polyreactivity
16,QVQLVESGGGLVQAGGSLRLSCAASGRTSPVYAMGWYRQAPGKERELVAAIRGGARTYYADSEKGRFTISRDNAKNTVYLQMNSLKPEDTAVYYCATGSRYRLGPGDSWGQGTQGTVSS,high polyreactivity

row,Sequence,polyreactivity (PSR sort gate)
1,QVQLVESGGGLVQAGGSLRLSCAASGRTSRFDAMGWDIEAPGKERELVARITTRGGSTYYADSVKGRFTISRDNAKNTVYLQMNSLKPEDTAVYFCNAKVTRGDVGGRFEYWGQGTQVTVSS,high polyreactivity
2,QVQLVESGGGLVQAGGSLRLSCAASGRTSRFYAMGWYRQAPGKERELVARITTRGGSTYYADSVKGRFTISRDNAKNTVYLQRNSLKPEDTAVYYCNTAFWYSRSMDYWGQGTQVTVSS,high polyreactivity
3,QVQLVESGGGLVQAGGSLRLSCAASGRTSRIYAMGWYRPAPGKRELVAAISGSGSRTYYADSVKGRFTISRDNAKNTVYIQMNSLKPEDTAVYYCNGRYWYRDHPPEFDYWGQGTQVTVSS,high polyreactivity
4,QVQLVESGGGLVQAGGSLRLSCAASGRTSSRNAMGWYRQAPGKERELVAAISQSGGSTYYADSVKGRFTISRDNAKNTVYLQMNSLKPEDTAVYYCAKEYKPQSYPTYYNYYYWGQGTQVTVSS,low polyreactivity
5,QVQLVESGGGLVQAGGSLRLSCAASGRTSSTYDMGWYRQAPGKERELVADITWSGGSTYYADSVKGRFTISRDNAKNTVYLQMNRLKPEDTAVYYCAAPFVKFVGSLVYAGYDSWGQGTQVTVSS,low polyreactivity
6,QVQLVESGGGLVQAGGSLRLSCAASGRTSSWYVMGWYRQAPGKERELVAAISGSGGSTYYADSVKGRFTISRDNAKNTVYLQMNSLKPEDTAVYYCAADSWSYSGYNYWGQGTQVTVSS,high polyreactivity
7,QVQLVESGGGLVQAGGSLRLSCAASGRTSTQNAMGWYRQAPGKERELVAAITTGGGSTYYADSVKGRFTISRDNAKNTVYLQMNSLKPEDTAVYYCAARTPQRSEWTKYGYWGQGTQVTVSS,low polyreactivity
8,QVQLVESGGGLVQAGGSLRLSCAASGRTSVNYAMGWYREAPGKERELVASITYSDGRTYYADSVKGRFTISRDNAKNTVYLQMNSLKPEDTAVYYCAARGYSYRGWRMDYWGQGTQVTVSS,high polyreactivity
9,QVQLVESGGGLVQAGGSLRLSCAASGRTSVVHAMGWYRQAPGKERELVAAITSGGSTHYADSVKGRFTISRDNAKNTVYLQMNSLKPEDTAVYSCNARDRRRTNLLDYWGQGTQVTVSS,low polyreactivity
10,QVQLVESGGGLVQAGGSLRLSCAASGRTSWRYAMGWYRQAPGKERELVAANNRGGSTYYADSVKGRFTISRDNAKNTVYLQMNSLKPEDTAVYYCAVDTPLEYYHQQAYVAGEYWGQGTQVTVSS,low polyreactivity
11,QVQLVESGGGLVQAGGSLRLSCAASGRTSWVNAMGWYRQAPGKERELVAAIVSGGTTKYADSVKGRFTISRDNAKNTVYLQMNSMKPEDTAVYYCAAALGLGGQKTRRYEYWGQGTQVTVSS,high polyreactivity
12,QVQLVESGGGLVQAGGSLRLSCAASGRTSWYTMGWYRQAPGKERELVAAISGSGGITYYADSVKGRFTISRDNAKNTVYLQMNSLKPEDTAVYYCNALRPRSLTEMYYWGQGTQVTVSP,high polyreactivity
13,QVQLVESGGGLVQAGGSLRLSCAASGRTSYGYAMGWYRQAPGKERELVAAITSSGGSTYYADSVKGRFTISRDNAKNTVYLEMNSLKPEDTAVYYCAASRVRYSYGYPYYYWGQGTQVTVSS,high polyreactivity
14,QVQLVESGGGLVQAGGSLRLSCAASGRTSYTNAMGWYRQAPGKERELVAAINYSGGSTYYADSVKGRFTISRDNAKNTVYLQMNSLKPEDIAVYYCAAERYYWYTEMGYWGQGTQGTVSS,high polyreactivity
15,QVQLVESGGGLVQAGGSLRLSCAASGRTSYYAMGWYRQAPGKERELVAAINSGDSTTYADSVKGRFTISRDNAKNTVYLQMNSLKPEDTAVYYCATALYDWYSLEFDYWGQGTQVTVSS,low polyreactivity
